These results are taken from US20250339554A1 (BROAD INSTITUTE, published 2025).

Data set [1] deals with the molecule itself. In words: size-exclusion chromatography of purified PNMA1; self-assembly. Background: SEC sorts molecules by how far they enter the pores of the column.
Data set [2] concerns the molecule itself. In words: electron microscopy; self-assembly.
Data set [3] deals with the molecule itself. Briefly: TEM of capsids purified from E. coli; self-assembly.
Data set [4] deals with the molecule itself. Briefly: SEC, iodixanol gradient and TEM of particles from HEK293 supernatant; self-assembly into capsids.

B1: PNMA1 (other)
chain: MAMTLLEDWCRGMDVNSQRALLVWGIPVNCDEAEIEETLQAAMPQVSYRMLGRMFWREENAKAALLELTGAVDYAAIPREMPGKGGVWKVLFKPPTSDAEFLERLHLFLAREGWTVQDVARVLGFQNPTPTPGPEMPAEMLNYILDNVIQPLVESIWYKRLTLFSGRDIPGPGEETFDPWLEHTNEVLEEWQVSDVEKRRRLMESLRGPAADVIRILKSNNPAITTAECLKALEQVFGSVESSRDAQIKFLNTYQNPGEKLSAYVIRLEPLLQKVVEKGAIDKDNVNQARLEQVIAGANHSGAIRRQLWLTGAGEGPAPNLFQLLVQIREEEAKEEEEEAEATLLQLGLEGHF
notes: Self-assembling capsid protein
As to B1, the binding result in data set [1] is “binds”.

B2: PNMA7A (other)
chain: MASIIARVGNSRRLNAPLPPWAHSMLRSLGRSLGPIMASMADRNMKLFSGRVVPAQGEETFENWLTQVNGVLPDWNMSEEEKLKRLMKTLRGPAREVMRVLQATNPNLSVADFLRAMKLVFGESESSVTAHGKFFNTLQAQGEKASLYVIRLEVQLQNAIQAGIIAEKDANRTRLQQLLLGGELSRDLRLRLKDFLRMYANEQERLPNFLELIRMVREEEDWDDAFIKRKRPKRSESMVERAVSPVAFQGSPPIVIGSADCNVIEIDDTLDDSDEDVILVESQDPPLPSWGAPPLRDRARPQDEVLVIDSPHNSRAQFPSTSGGSGYKNNGPGEMRRARKRKHTIRCSYCGEEGHSKETCDNESDKAQVFENLIITLQELTHTEMERSRVAPGEYNDFSEPL
notes: also called ZCCHC12
As to B2, in data set [2], the binding result was “binds”.

B3: PNMA7B (other)
chain: MASITACVGNSRQQNAPLPPWAHSMLRSLGRSLCPLVVKMAERNMKLFSGRVVPAQGKETFENWLIQVNEVLPDWSMSEEEKLKRLMKTLRGPAREVMRLLQAANPNLSVADFLRAMKLVFGESESSVTAHGKFFNTLQAQGEKASLYVIRLEVQLQNAIQAGILAEKDANQTRLQQLLLGAELNRDLRFRLKHLLRMYANKQERLPNFLELIKMIREEEDWDDAFIKRKRPKRSEPIMERAASPVAFQGAQPIAISSADCNCNVIEIDDTLDDSDEDVILVVSLYPSLTPTGAPPFRGRARPLDQVLVIDSPNNSGAQSLSTSGGSGYKNDGPGNIRRARKRKYTTRCSYCGEEGHSKETCDNESNKAQVFENLIITLQELTHTEERSKEVPGEHSDASEPQ
notes: Capsids were purified from E. coli; also called ZCCHC18
Turning to B3, the binding result in data set [3] is on record as “binds”.

B4: PNMA6A (other)
chain: MAVTMLQDWCRWMGVNARRGLLILGIPEDCDDAEFQESLEAALRPMGHFTVLGKAFREEDNATAALVELDREVNYALVPREIPGTGGPWNVVFVPRCSGEEFLGLGRVFHFPEQEGQMVESVAGALGVGLRRVCWLRSIGQAVQPWVEAVRCQSLGVFSGRDQPAPGEESFEVWLDHTTEMLHVWQGVSERERRRRLLEGLRGTALQLVHALLAENPARTAQDCLAALAQVFGDNESQATIRVKCLTAQQQSGERLSAFVLRLEVLLQKAMEKEALARASADRVRLRQMLTRAHLTEPLDEALRKLRMAGRSPSFLEMLGLVRESEAWEASLARSVRAQTQEGAGARAGAQAVARASTKVEAVPGGPGREPEGLLQAGGQEAEELLQEGLKPVLEECDN
As for B4, the binding result in data set [2] is “binds”.

B5: PNMA2 (other)
chain: MALALLEDWCRIMSVDEQKSLMVTGIPADFEEAEIQEVLQETLKSLGRYRLLGKIFRKQENANAVLLELLEDTDVSAIPSEVQGKGGVWKVIFKTPNQDTEFLERLNLFLEKEGQTVSGMFRALGQEGVSPATVPCISPELLAHLLGQAMAHAPQPLLPMRYRKLRVFSGSAVPAPEEESFEVWLEQATEIVKEWPVTEAEKKRWLAESLRGPALDLMHIVQADNPSISVEECLEAFKQVFGSLESRRTAQVRYLKTYQEEGEKVSAYVLRLETLLRRAVEKRAIPRRIADQVRLEQVMAGATLNQMLWCRLRELKDQGPPPSFLELMKVIREEEEEEASFENESIEEPEERDGYGRWNHEGDD
notes: Self-assembling capsid protein; It was tested as particles from HEK293 supernatant (HA-tag pulldown) and as monomers and capsids assembled in vitro
B5: the binding result in data set [4] is “binds”.

B6: PNMA5 (other)
chain: MALTLLEDWCKGMDMDPRKALLIVGIPMECSEVEIQDTVKAGLQPLCAYRVLGRMFRREDNAKAVFIELADTVNYTTLPSHIPGKGGSWEVVVKPRNPDDEFLSRLNYFLKDEGRSMTDVARALGCCSLPAESLDAEVMPQVRSPPLEPPKESMWYRKLKVFSGTASPSPGEETFEDWLEQVTEIMPIWQVSEVEKRRRLLESLRGPALSIMRVLQANNDSITVEQCLDALKQIFGDKEDFRASQFRFLQTSPKIGEKVSTFLLRLEPLLQKAVHKSPLSVRSTDMIRLKHLLARVAMTPALRGKLELLDQRGCPPNFLELMKLIRDEEEWENTEAVMKNKEKPSGRGRGASGRQARAEASVSAPQATVQARSFSDSSPQTIQGGLPPLVKRRRLLGSESTRGEDHGQATYPKAENQTPGREGPQAAGEELGNEAGAGAMSHPKPWET
notes: Capsids were purified from E. coli
Take B6: the binding result in data set [3] is “binds”.
